Results published in the supplement of paper PMC10065799, “High-throughput profiling of sequence recognition by tyrosine kinases and SH2 domains using bacterial peptide display” (eLife, 2023).

Tests used:
Fes = Fes (UniProt P07332); assay: phosphorylation enrichment, bacterial display (enrichment ratio); higher = better substrate or ligand; peptides without Tyr show the background
EPHB2 = EPHB2 (UniProt P29323); assay: as above
c-Src = assay: as above
Hck = Hck (UniProt P08631); assay: as above
Sequence of Hck (P08631 whole entry, looked up): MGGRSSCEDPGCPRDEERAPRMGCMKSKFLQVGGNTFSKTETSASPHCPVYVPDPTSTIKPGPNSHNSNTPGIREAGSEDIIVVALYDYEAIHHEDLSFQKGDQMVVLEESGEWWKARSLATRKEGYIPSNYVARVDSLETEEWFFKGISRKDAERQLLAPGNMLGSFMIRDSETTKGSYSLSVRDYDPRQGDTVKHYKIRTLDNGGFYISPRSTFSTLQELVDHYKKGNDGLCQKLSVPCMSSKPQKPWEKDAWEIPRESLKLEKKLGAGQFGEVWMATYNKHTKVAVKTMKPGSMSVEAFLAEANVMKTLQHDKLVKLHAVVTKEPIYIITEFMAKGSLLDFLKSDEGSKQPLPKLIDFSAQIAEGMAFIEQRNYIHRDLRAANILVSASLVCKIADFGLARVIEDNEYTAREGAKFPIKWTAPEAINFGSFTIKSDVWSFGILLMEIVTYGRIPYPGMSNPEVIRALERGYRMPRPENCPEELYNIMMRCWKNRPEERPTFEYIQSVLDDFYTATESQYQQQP

AncSZ = assay: as above
FGFR1 = FGFR1 (UniProt P11362); assay: as above
Sequence of FGFR1 (P11362 whole entry, looked up): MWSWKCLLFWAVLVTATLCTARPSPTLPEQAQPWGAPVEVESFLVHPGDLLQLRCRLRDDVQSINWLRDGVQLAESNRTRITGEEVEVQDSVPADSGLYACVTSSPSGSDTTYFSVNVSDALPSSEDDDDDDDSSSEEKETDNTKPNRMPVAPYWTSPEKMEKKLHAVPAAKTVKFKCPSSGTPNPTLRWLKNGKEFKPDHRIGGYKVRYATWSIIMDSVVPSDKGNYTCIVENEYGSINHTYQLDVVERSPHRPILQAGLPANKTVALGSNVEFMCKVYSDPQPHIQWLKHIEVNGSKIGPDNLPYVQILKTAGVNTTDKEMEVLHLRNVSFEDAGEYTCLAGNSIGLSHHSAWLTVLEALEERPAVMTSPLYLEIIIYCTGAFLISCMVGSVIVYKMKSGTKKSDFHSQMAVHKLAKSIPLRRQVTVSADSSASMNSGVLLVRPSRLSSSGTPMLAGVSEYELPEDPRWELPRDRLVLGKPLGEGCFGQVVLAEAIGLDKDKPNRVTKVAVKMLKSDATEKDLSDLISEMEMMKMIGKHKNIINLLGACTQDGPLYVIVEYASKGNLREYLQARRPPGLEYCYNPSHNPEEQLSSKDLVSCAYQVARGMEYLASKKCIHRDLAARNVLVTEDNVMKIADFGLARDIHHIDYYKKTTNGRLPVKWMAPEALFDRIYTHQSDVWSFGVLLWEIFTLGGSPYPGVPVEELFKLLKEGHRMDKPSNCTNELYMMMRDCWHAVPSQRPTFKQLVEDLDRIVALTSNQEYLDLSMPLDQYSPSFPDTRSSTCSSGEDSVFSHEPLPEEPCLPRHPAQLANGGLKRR

EPHB1 = EPHB1 (UniProt P54762); assay: as above
MERTK = MERTK (UniProt Q12866); assay: as above
Jak2 = Jak2 (UniProt O60674); assay: as above
Sequence of Jak2 (O60674 whole entry, looked up): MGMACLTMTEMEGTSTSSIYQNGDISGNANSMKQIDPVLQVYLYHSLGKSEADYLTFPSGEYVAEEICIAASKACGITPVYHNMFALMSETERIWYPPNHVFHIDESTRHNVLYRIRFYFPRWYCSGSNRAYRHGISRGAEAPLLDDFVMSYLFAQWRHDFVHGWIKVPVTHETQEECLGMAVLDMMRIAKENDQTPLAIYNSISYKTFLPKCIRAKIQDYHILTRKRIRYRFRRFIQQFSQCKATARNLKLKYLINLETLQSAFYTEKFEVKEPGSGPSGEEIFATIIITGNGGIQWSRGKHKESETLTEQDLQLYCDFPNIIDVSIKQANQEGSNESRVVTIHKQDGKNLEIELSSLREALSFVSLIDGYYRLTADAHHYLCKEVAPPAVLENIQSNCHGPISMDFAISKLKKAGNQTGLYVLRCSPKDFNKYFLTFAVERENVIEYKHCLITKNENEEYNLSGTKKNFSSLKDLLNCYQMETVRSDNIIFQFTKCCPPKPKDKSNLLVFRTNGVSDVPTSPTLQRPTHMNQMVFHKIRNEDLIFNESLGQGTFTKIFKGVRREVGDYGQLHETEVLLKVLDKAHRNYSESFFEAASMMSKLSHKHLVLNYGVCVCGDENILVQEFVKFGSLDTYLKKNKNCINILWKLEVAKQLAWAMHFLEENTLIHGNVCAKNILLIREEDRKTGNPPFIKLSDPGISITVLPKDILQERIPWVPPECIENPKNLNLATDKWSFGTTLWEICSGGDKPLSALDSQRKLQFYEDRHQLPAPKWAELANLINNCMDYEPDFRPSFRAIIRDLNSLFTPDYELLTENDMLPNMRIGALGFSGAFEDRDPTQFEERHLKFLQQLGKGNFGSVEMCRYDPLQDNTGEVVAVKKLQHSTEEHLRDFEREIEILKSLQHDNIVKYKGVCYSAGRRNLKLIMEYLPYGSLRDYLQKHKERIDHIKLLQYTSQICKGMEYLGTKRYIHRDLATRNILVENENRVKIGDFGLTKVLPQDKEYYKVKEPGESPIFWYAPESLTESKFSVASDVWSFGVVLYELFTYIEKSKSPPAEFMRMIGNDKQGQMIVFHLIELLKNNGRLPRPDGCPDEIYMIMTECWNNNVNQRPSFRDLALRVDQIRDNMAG

FGFR3 = FGFR3 (UniProt P22607); assay: as above
Sequence of FGFR3 (P22607 whole entry, looked up): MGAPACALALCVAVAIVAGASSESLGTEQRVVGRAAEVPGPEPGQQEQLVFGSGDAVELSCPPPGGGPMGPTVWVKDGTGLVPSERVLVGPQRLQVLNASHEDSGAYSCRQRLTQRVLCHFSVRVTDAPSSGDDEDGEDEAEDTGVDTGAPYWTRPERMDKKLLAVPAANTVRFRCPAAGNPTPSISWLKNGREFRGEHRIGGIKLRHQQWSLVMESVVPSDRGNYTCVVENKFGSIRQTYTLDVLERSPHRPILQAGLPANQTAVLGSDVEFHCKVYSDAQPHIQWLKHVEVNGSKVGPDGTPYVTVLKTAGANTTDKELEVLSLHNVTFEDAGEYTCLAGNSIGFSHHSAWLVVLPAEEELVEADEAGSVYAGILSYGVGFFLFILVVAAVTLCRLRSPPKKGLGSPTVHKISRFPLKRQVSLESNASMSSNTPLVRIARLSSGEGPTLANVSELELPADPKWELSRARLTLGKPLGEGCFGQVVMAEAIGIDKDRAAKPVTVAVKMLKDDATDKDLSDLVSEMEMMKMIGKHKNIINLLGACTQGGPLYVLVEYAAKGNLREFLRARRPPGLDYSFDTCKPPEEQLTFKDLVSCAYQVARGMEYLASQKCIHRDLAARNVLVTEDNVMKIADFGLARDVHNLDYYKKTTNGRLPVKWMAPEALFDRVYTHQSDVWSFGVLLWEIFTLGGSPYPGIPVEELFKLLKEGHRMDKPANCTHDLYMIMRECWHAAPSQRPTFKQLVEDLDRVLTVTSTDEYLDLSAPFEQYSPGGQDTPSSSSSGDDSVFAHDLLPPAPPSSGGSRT

Fyn = Fyn (UniProt P06241); assay: as above
Sequence of Fyn (P06241 whole entry, looked up): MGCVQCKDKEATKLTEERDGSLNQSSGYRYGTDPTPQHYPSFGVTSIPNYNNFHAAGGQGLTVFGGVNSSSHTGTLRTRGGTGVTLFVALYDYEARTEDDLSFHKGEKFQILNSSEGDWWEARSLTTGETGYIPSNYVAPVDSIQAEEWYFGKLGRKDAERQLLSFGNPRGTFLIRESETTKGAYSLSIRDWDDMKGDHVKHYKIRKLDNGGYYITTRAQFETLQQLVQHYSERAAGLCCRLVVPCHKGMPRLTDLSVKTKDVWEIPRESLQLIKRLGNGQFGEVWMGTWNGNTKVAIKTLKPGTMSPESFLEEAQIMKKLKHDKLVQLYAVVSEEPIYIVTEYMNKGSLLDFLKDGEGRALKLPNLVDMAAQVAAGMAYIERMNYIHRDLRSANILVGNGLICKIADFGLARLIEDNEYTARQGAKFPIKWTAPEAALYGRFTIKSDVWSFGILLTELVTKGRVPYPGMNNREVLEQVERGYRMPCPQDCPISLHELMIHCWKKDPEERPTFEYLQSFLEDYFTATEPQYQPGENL

c-Abl (mouse) = assay: as above
Fer (mouse) = assay: as above
c-Src SH2 = assay: SH2 binding enrichment of the phosphorylated peptide, bacterial display (enrichment ratio); higher = better substrate or ligand; peptides without Tyr show the background
Grb2 SH2 = Grb2 SH2 (UniProt P62993); assay: as above
SHP2-C SH2 = assay: as above
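Throughout, for SH2 binding enrichment of the phosphorylated peptide, bacterial display: peptide library displayed on the E. coli surface as eCPX fusions, selected cells deep-sequenced, score is each peptide's frequency after selection divided by its frequency in the input.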
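Throughout, for phosphorylation enrichment, bacterial display: 11-residue human phosphosite peptides and single-mutation variants displayed on the E. coli surface, counted by deep sequencing, each peptide's frequency after selection divided by its frequency in the unselected input library; frequency after pTyr selection over input frequency; kinase dosed for 20-30% of maximal phosphorylation in three min.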

Sequence of EPHB2 (P29323 whole entry, looked up): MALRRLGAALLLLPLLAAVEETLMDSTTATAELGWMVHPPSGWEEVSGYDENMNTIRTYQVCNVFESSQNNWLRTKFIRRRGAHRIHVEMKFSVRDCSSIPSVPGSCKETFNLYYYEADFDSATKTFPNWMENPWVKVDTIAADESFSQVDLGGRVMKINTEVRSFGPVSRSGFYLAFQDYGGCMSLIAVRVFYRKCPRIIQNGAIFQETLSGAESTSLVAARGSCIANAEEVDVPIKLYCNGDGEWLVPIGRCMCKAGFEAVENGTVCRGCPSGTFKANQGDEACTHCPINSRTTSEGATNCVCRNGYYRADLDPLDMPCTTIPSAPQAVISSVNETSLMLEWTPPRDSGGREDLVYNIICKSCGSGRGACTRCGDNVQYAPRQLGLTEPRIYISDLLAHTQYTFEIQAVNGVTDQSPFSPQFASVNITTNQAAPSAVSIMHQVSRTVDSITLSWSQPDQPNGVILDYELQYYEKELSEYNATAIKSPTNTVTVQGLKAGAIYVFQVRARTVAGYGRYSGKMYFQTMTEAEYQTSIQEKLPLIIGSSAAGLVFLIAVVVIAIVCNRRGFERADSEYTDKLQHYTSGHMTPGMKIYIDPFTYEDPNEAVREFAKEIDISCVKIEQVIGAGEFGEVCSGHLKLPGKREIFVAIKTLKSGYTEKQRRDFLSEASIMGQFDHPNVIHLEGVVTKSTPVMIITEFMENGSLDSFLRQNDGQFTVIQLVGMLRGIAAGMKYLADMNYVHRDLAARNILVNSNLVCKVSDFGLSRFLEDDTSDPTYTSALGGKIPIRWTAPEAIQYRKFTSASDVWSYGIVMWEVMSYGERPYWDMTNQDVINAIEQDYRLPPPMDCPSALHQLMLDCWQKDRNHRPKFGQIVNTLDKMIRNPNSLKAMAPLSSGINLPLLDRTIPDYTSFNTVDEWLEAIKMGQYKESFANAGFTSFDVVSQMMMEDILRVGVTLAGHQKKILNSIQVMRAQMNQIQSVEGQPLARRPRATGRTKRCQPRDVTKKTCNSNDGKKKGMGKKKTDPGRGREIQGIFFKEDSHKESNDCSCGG

| Sequence | phosphorylation enrichment (Fes) | phosphorylation enrichment (EPHB2) | phosphorylation enrichment (c-Src) | phosphorylation enrichment (Hck) | phosphorylation enrichment (AncSZ) | phosphorylation enrichment (FGFR1) | phosphorylation enrichment (EPHB1) | phosphorylation enrichment (MERTK) | phosphorylation enrichment (Jak2) | phosphorylation enrichment (FGFR3) | phosphorylation enrichment (Fyn) | phosphorylation enrichment (c-Abl (mouse)) | phosphorylation enrichment (Fer (mouse)) | SH2 binding enrichment (c-Src SH2) | SH2 binding enrichment (Grb2 SH2) | SH2 binding enrichment (SHP2-C SH2) |
| --- | --- | --- | --- | --- | --- | --- | --- | --- | --- | --- | --- | --- | --- | --- | --- | --- |
| NPQKSYFIHLF [WAS_Y83_R86H_YF] | 1.32 | 0.512 | 0.399 | 0.431 | 0.93 | 0.475 | 0.644 | 0.384 | 1.29 | 0.73 | 0.396 | 0.77 | 0.449 | 0.604 | 1.19 | 1.08 |
| WCSNDYLGMSR [ALAS2_Y199] | 0.845 | 0.752 | 0.843 | 0.781 | 1.85 | 1.57 | 0.959 | 0.398 | 3.41 | 1.25 | 0.551 | 0.6 | 0.5 | 0.642 | 0.895 | 0.773 |
| EAEALYQTTFQ [KRT73_Y325_K328T] | 1.27 | 1.53 | 4.32 | 4.59 | 1.98 | 0.644 | 1.27 | 4.9 | 1.13 | 0.972 | 3.38 | 2.1 | 11.9 | 0.483 | 0.804 | 0.739 |
| KPLMPSMRFSR [SMARCE1_Y73_Y73S_YF] | 0.876 | 0.399 | 0.543 | 0.413 | 0.828 | 0.396 | 0.392 | 0.459 | 0.685 | 0.463 | 0.424 | 0.737 | 0.35 | 0.569 | 0.831 | 0.675 |
| FLEKFYKFGCR [NNMT_Y25_S29C_YF] | 1.12 | 0.506 | 0.446 | 0.443 | 0.934 | 0.631 | 0.522 | 0.432 | 0.961 | 0.696 | 0.512 | 0.884 | 0.546 | 0.781 | 1.11 | 1.22 |
| LEPGIYIPEDD [XPNPEP3_Y455_I450L] | 1.5 | 0.717 | 0.518 | 0.558 | 1.58 | 0.556 | 0.716 | 0.653 | 1.24 | 1.22 | 0.705 | 0.974 | 0.709 | 0.456 | 0.881 | 0.455 |
| RGRKVYLEGGF [PRIM2_Y201_D204G] | 0.642 | 0.431 | 0.803 | 0.858 | 0.787 | 0.355 | 0.532 | 0.972 | 0.796 | 0.446 | 0.351 | 0.719 | 0.855 | 0.479 | 0.941 | 0.27 |
| DDEVFYSPLSL [OTC_Y317_R320L] | 1.2 | 0.598 | 5.55 | 7.22 | 2 | 3.14 | 0.495 | 5.35 | 1.28 | 2.76 | 5.08 | 2.96 | 11.1 | 0.38 | 0.777 | 0.588 |
| LDLSFYTTSSS [EMD_Y182_P183T_YF] | 2.65 | 1.29 | 0.785 | 0.999 | 2.23 | 1.12 | 1.04 | 0.897 | 2.49 | 1.53 | 0.93 | 2.47 | 0.882 | 0.595 | 0.945 | 0.657 |
| HQPGEYLFHAE [FLT3_Y416_I417L] | 1.13 | 0.724 | 0.879 | 0.756 | 1.09 | 0.628 | 0.527 | 0.617 | 1.29 | 0.691 | 0.481 | 1.21 | 0.554 | 0.514 | 0.742 | 1.19 |
| PLEGKYEWQEV [CDKN1B_Y74] | 1.49 | 0.572 | 0.465 | 0.483 | 1.29 | 0.619 | 0.57 | 0.452 | 1.11 | 0.743 | 0.379 | 0.816 | 0.613 | 3.88 | 0.675 | 0.516 |
| KLNNEHLELNF [MME_Y497_Y497H_YF] | 0.921 | 0.466 | 0.454 | 0.464 | 0.88 | 0.462 | 0.514 | 0.405 | 0.813 | 0.662 | 0.453 | 0.805 | 0.423 | 0.419 | 0.783 | 0.542 |
| IKIMGYSIRTI [IDS_Y490] | 1.01 | 0.52 | 0.571 | 0.457 | 0.991 | 0.424 | 0.494 | 0.455 | 0.862 | 0.657 | 0.452 | 0.822 | 0.478 | 0.816 | 1.4 | 1.02 |
| AYQGKYTPSGQ [ALDOA_Y343_C339Y] | 0.441 | 0.299 | 0.35 | 0.309 | 0.383 | 0.316 | 0.388 | 0.337 | 0.545 | 0.375 | 0.262 | 0.384 | 0.345 | 0.622 | 0.939 | 0.639 |
| FNVLQYVVPEV [EIF3A_Y382] | 1.32 | 1.02 | 0.58 | 0.635 | 1.88 | 2.06 | 0.933 | 1.99 | 1.55 | 1.85 | 0.629 | 5.16 | 0.701 | 0.599 | 0.835 | 0.963 |
| AAVDTYCRHNY [HLA-DRB1_Y107] | 0.914 | 0.527 | 0.461 | 0.531 | 0.871 | 0.451 | 0.507 | 0.479 | 0.911 | 0.571 | 0.548 | 0.755 | 0.442 | 0.516 | 0.731 | 0.777 |
| VDDQIYYFRKP [PBRM1_Y1289_E1287Q] | 1.23 | 0.98 | 6.28 | 8.88 | 2.93 | 8.8 | 1.08 | 5.41 | 2.07 | 7.78 | 8.3 | 12.8 | 1.75 | 0.487 | 0.746 | 0.825 |

| Sequence | phosphorylation enrichment (Fes) | phosphorylation enrichment (EPHB2) | phosphorylation enrichment (c-Src) | phosphorylation enrichment (Hck) | phosphorylation enrichment (AncSZ) | phosphorylation enrichment (FGFR1) | phosphorylation enrichment (EPHB1) | phosphorylation enrichment (MERTK) | phosphorylation enrichment (Jak2) | phosphorylation enrichment (FGFR3) | phosphorylation enrichment (Fyn) | phosphorylation enrichment (c-Abl (mouse)) | phosphorylation enrichment (Fer (mouse)) | SH2 binding enrichment (c-Src SH2) | SH2 binding enrichment (Grb2 SH2) | SH2 binding enrichment (SHP2-C SH2) |
| --- | --- | --- | --- | --- | --- | --- | --- | --- | --- | --- | --- | --- | --- | --- | --- | --- |
| VRSNHYAPEED [TJP1_Y1346_D1347A] | 0.984 | 0.611 | 0.434 | 0.498 | 0.941 | 0.426 | 0.529 | 0.462 | 0.955 | 0.605 | 0.473 | 0.728 | 0.469 | 0.695 | 1 | 0.893 |
| TVLWRYTGTRP [UGT1A1_Y337] | 1.01 | 0.582 | 0.344 | 0.557 | 1.17 | 0.495 | 0.432 | 0.317 | 0.779 | 0.606 | 0.411 | 0.633 | 0.423 | 0.588 | 0.707 | 0.724 |
| PLFGEYFTLQI [TP53_Y327_D324Y_YF] | 2.8 | 2.42 | 8.29 | 4.51 | 4.62 | 16.9 | 2.69 | 1.13 | 12.9 | 12.5 | 6.77 | 4.41 | 1.49 | 0.394 | 0.757 | 0.629 |
| ASFGPYTRVQS [FOXL2_Y258_YF] | 0.606 | 0.381 | 0.481 | 0.483 | 0.61 | 0.527 | 0.524 | 0.498 | 0.669 | 0.494 | 0.515 | 0.449 | 0.409 | 1.43 | 0.655 | 4.01 |
| SQQTFYRVSNM [ABCD1_Y181_YF] | 0.741 | 0.507 | 0.408 | 0.513 | 0.564 | 0.433 | 0.31 | 0.388 | 0.546 | 0.575 | 0.409 | 0.492 | 0.39 | 0.525 | 0.82 | 0.762 |
| RGRDSYGGPPR [RBMX_Y190] | 0.734 | 0.613 | 0.8 | 0.64 | 0.744 | 0.604 | 0.427 | 0.632 | 0.557 | 0.563 | 0.721 | 0.934 | 0.589 | 0.519 | 1.1 | 0.82 |
| PTFENYANSTQ [SLC12A3_Y70_H69N_YF] | 1.08 | 0.711 | 0.391 | 0.766 | 0.853 | 0.615 | 0.542 | 0.572 | 0.895 | 0.539 | 0.437 | 0.531 | 0.52 | 0.787 | 1.62 | 0.369 |
| QQLVAYFSKHA [SRC_Y232_YF] | 1.15 | 0.547 | 0.744 | 0.652 | 0.972 | 0.621 | 0.664 | 0.573 | 0.936 | 0.813 | 0.53 | 0.806 | 0.48 | 0.644 | 1.57 | 0.699 |
| PADRAYSWYQH [NDST1_Y711] | 1.61 | 0.817 | 1.77 | 0.888 | 0.98 | 1.33 | 1.19 | 2.86 | 1.68 | 1.16 | 0.617 | 1.58 | 15.8 | 0.753 | 0.747 | 0.47 |
| ERFSFYGMKAV [SLC15A2_Y61_YF] | 1.56 | 0.605 | 0.455 | 0.546 | 1.08 | 0.505 | 0.647 | 0.383 | 1.02 | 0.84 | 0.439 | 0.812 | 0.554 | 0.427 | 0.796 | 0.68 |
| LDFNEYFRNLN [HPRT1_Y198_D201N_YF] | 2.65 | 1.13 | 0.585 | 0.979 | 2.42 | 1.2 | 0.988 | 1.02 | 3.21 | 1.6 | 1 | 1.24 | 1.35 | 0.617 | 0.693 | 0.37 |
| SVVEPYEPPEV [TP53_Y220_V218E] | 1.1 | 0.533 | 0.4 | 0.472 | 1.29 | 0.521 | 0.541 | 0.442 | 0.985 | 0.654 | 0.741 | 0.601 | 0.462 | 0.608 | 1.13 | 0.726 |
| YHLGKYLQEVL [KLB_Y910_Y906H] | 1.1 | 0.724 | 0.298 | 0.498 | 1.18 | 0.527 | 0.481 | 0.383 | 0.87 | 0.739 | 0.524 | 0.685 | 0.452 | 0.435 | 0.878 | 0.565 |
| LENQTYFRSFE [AKAP9_Y2482_K2484R] | 1.14 | 0.811 | 0.55 | 0.678 | 0.881 | 0.571 | 0.487 | 0.537 | 1.09 | 1.02 | 0.851 | 0.843 | 0.632 | 0.624 | 0.803 | 0.546 |
| NPPGMHPVTGP [LPP_Y346_Y346H] | 0.516 | 0.332 | 0.358 | 0.28 | 0.534 | 0.361 | 0.299 | 0.35 | 0.474 | 0.331 | 0.353 | 0.997 | 0.286 | 0.45 | 0.861 | 0.747 |
| IEDPFYGNDFD [ACP1_Y133_S137F_YF] | 1.21 | 0.644 | 0.544 | 0.595 | 1.27 | 0.548 | 0.83 | 0.392 | 0.972 | 0.806 | 0.566 | 0.79 | 0.509 | 0.736 | 1.09 | 0.753 |
